Source: the DeepSol protein solubility set

Experiment: soluble on expression in E. coli; label from the status in PepcDB or PDB records

Row | Sequence | soluble on expression in E. coli
1 | MRNPIMVTTEVAGEPPGQGRKWAAHGTMAAPRVHTDYHPGGGSACSSVKVRSHVGHTGVFFFVDQDPLAVSLTSQSLIPPLIKPGLLKAWGFLLLCAQPSANGHSLCCLLYTDLVSSHELSPFRALCLGPSDAPSACASCNCLASTYYLLEHHHHHH | not soluble
2 | MGSDKIHHHHHHMSRRDEGNMVADAGALLPNGDTVSTDAIKVPAGRVNRLMRLGGLAAGIAGGATLQAIAGIARGTRPDARSLLASPANVRRVADELARMRGAAMKIGQLLSMDAGEVLPPELAQILARLRDRAHIMPPSQLGQVLEREWGAGWRRQFKRFDVRPIAAASIGQVHRARTRDGRDLAIKVQYPGVARSIDSDVSNVGALLRLSGLLPKGFDISPYLAEARRQLHEETDYAREGAQLKRFAEWLTDSDTFVVPQYHADLSTAQILAMSYVAGQPIETLADADAATRNRVMTALVDLSLREVFHFGAMQSDPNFANYRYVPQSGRIVLLDFGAARDLHPLVTKSYADMLRSGLVGDDHGIWDAARALGLISDGPDIGSSEARLLALIAGVFEVLRAQEFDFADQTLIRALNEEGMALAQSGYHPPSLPMDVLYLQRKFGGLFLLGNRLRTKLCLRDIIDPYL | not soluble
3 | MIGRKEKERERPYYRDPDDPEYIKDLQRPAVIKEDLSEMERRKRVQQILESKSFCHELEEVIRQECDTARTDPDHLQVLQKLSDLTVPQGNMSFGNLHTYGGNTIAIADLRGNEKYSKAERIQRNKLACLFRLADLFQWSQGIHNEISYRTNDEDNTFLMNPFGLLYHEITAATIVKIDENGKILDCGTLKAGVNQPAFLLHSAIYKAHPMVRCILHMHTAIVAAVASMKCGLLPLCKEAMVLGPVGYHDYQDIGDDDIQFDEIIANLGDKNVLFLRNQGFLVVGDTIEHATFLANNTVIACETQVRAARAGLDNLIIPEEKAIQRAFRNSRNTNSLKRNGTVDWRVGELEWESWMRVLDHANFQTGHVYRQPQLRPKSAMSTSMVNNNDVAVPPTTSAYGQIDETNLESVSAHRLALLRKEQERVRWMNSPNAYQKVEFLEYGADNPKKITKWVHDVNVPSASGTPVKISSVHQFSPASSNPKEFKEKQKAIKENNRLGTLSAGPQSQILDSVTYEDIALLIKPDNDGTVGQSSTADRAILIGTASKGIIDRQFQHHAQVYHQIYAPNPFSVETDADIKKYVDMVKAKNSQSAPVSARSGYSQYDEVEADTVSLMQGVREHKLSQAALSASDDGLNAGISPNNVRTSEESVNTSYMSQSVVFDYPDILRPIYRQETYV | not soluble
4 | MYRPKDHGWVEVIVGPMYSGKSEELIRRIRRAKIAKQKIQVFKPEIDNRYSKEDVVSHMGEKEQAVAIKNSREILKYFEEDTEVIAIDEVQFFDDEIVEIVNKIAESGRRVICAGLDMDFRGKPFGPIPELMAIAEFVDKIQAICVVCGNPATRTQRLINGKPAFYDDPVVLIGAMESYEARCRKCHVVPQKKEVMAGDPLEHHHHHH | soluble
5 | MSLADLTSLSIEHLRSPRLYTHRLILRPWLVQDRARFAELNADPLVMEFFPSCLDRAQSDALLRRIDAHFAEHGFGWWALQVKGGDPFIGYVGLEVVDFDAPFVPAVAIGWRLAAEHWAEGFAHEAAEAALSYAFDTLGLDQVVAFTVPANENSLGLMERLGMHRDPTDDFEHPDLPPGHRLRHHVLYRLTREDWLRREGGSHHHHHH | soluble
6 | MNLFFEKTGATNVAEFSVSEIAGALKRVVEEKFGYVRVRGEISGYRGAHASGHAYFALKDDKARLEAVIWRGIMEKLKFPPEEGMEVIAVGKLTTYPGSSKYQIVIEALEPTGVGALMTLLENRKKKFAEEGLFDEEKKKPLPYMPKIIGVVTSPTGAVIRDIIHRISDRFPLHILVWPVRVQGETSGREVAAAVKGFNVLPLEGLIPKPDLLIVARGGGSLEDLWGFNDEVVVRAVYESSLPVISAVGHETDWTLIDYVADWRAPTPTAAAEKAVPVKIDLEVYVVSLGARLRTGLARYFDFHQQKLRAIIRALPTADQLFALPRRGFDEISSRLERALCVSCDKKRLYFHTLAIRFTPRLLNTEKAQHSAKEYTARLHRAFVHIVEKQRAQLEIAFRLLKSTSYQNILERGFVLALGQNNKPIKRLAQIPEKEQINLRFFDGEISVITQESFFNRSSKSKRIKSKQDDQGTLF | not soluble
7 | MQDGESNFPLLLLPENAKKHVLRTMDVDFLLSLSFCSKRTKHIVQSLKLKFEHFKMDLLGKTKLMINFRSTTILLVFNALYGDKAWKDVFRTVVSTGPPNARYYNTNFFKSFGWERKELAVEDTIYHIFDILNTNVIDVFLDCNNRNMFFFEKLSQTFRERNVRRISLGSMQNPIFNSFSYLENSLRNQFLELEGLAYLRELYRTLQEEHKILIQNFNYLNPNLPSTGKMTLNELLLINSSHITLTFNEMALNEKSLNIFLKHWINGSNKKLDYMYLSGFTQLGETSVAIEAILKRIVHKEASHDRLFKKFYDPGSNGNIGDNSSSLKHGFDIISNDGTPATASIRISEGVIYFQMKVWDQ | not soluble
8 | MSGAVPETPYHQRWLAFPDAVSSYRPLESRLAGTSRATADNRTPCTGRLGTPRVFLMATDDVSKAYSSPTFDAEALLGTVISAEDPDRVLIEPWATGVDGVILDVGSGTGRWTGHLASLGHQIEGLEPATRLVELARQTHPSVTFHHGTITDLSDSPKRWAGLLAWYSLIHMGPGELPDALVALRMAVEDGGGLLMSFFSGPSLEPMYHPVATAYRWPLPELAQALETAGFQVTSSHWDPRFPHAYLTAEASKQNLALEHHHHHH | not soluble
9 | MMRVAIFTDTFTPQVNGVAKTLERLTQYFQKEQIAYSVFAPQHTAEDNFVANVNKMRSIPLTILYPECRFSFPTPRIKRELLSFKPDIIHIATPFNMGLCGLYYAKKLNIPVVGSYHTDFDAYLRYYKIEFLSNMLWNYLKWFHSHMQKNFVPSFETLHQLKNKGFQTLSIWGRGVDCTLFHPAYNTDLFRKKYNITAKYVLSYVGRIAPEKDIDTLQHLIVKTAHTRNDIHWLIAGDGPLATSLREAVPKTNITFTGYLQGGDLAEAYACSNIMVFPSATETFGNVVLESLACGTPVIGANSGGVKNIITDGKTGVLCPPKNEDAFLSSIYFLLQNEEKLEQMGIESSSFAKSKSWDEVFRGLLNQYEEVLQHNASELLALEHHHHHH | soluble
10 | GHMSGFKHVSHVGWDPQNGFDVNNLDPDLRSLFSRAGISEAQLTDAETSKLIYDFIEDQGGLEAVRQEMRRQ | soluble
11 | MAEKPHMNLVVIGHVDHGKSTLVGHLLYRLGYIEEKKLKELEEQAKSRGKESFKFAWILDKMKEERERGITIDLTFMKFETKKYVFTIIDAPGHRDFVKNMITGASQADAAILVVSARKGEFEAGMSTEGQTREHLLLARTMGIEQIIVAVNKMDAPDVNYDQKRYEFVVSVLKKFMKGLGYQVDKIPFIPVSAWKGDNLIERSPNMPWYNGPTLVEALDQLQPPAKPVDKPLRIPVQNVYSIPGAGTVPVGRVETGVLRVGDKVVFMPPGVVGEVRSIEMHYQQLQQAEPGDNIGFAVRGVSKSDIKRGDVAGHLDKPPTVAEEFEARIFVIWHPSAITVGYTPVIHVHTASVSSRIIEIKAKLDPKTGQVVEQNPQFLKAGDAAIVRFKPVKPLVVEKFSEIPQLGRFAMRDMNRTVGIGIVTDVKPAKVDIKAK | soluble
12 | IIGGNEVTPHSRPYMVLLSLDRKTICAGALIAKDWVLTAAHCNLNKRSQVILGAHSITREEPTKQIMLVKKEFPYPCYDPATREGDLKLLQLTEKAKINKYVTILHLPKKGDDVKPGTMCQVAGWGRTHNSASWSDTLREVNITIIDRKVCNDRNHYNFNPVIGMNMVCAGSLRGGRDSCNGDSGSPLLCEGVFRGVTSFGLENKCGDPRGPGVYILLSKKHLNWIIMTIKGAV | soluble
13 | MGSDKIHHHHHHMSEMMIVAVTGGKGGTGKSTLSANLFFYFIENYKTALIDCDVETPNLPYLTGCEDLFLAREVFIEVPNIEEGKTYNYNNVCKEGALLKVGDKLIFIEDLCSGCKACGINSNITFKKKSIGKIYEKKFDNGYLIVGKSNLGERKTAKIVTETKKYGLSKNCEINIVDTAAGTHCNVVRALINADKVLIVTEPTPFGVSDAKRIIKVVEKLNIPYKIVLNRYGISDLKIGYNFKIPYDKRIVECYCKGESFLKYNDLRNYIEEIANWIIWG | not soluble
14 | MRVFKTKLIRLQLTAEELDALTADFISYKRDGVLPDIFGRDALYDDSFTWPLIKFERVAHIHLANENNPFPPQLRQFSRTNDEAHLVYCQGAFDEQAWLLIAILKPEPHKLARDNNQMHKIGKMAEAFRMRF | soluble
15 | MQERHTEQDYRALLIADTPIIDVRAPIEFEHGAMPAAINLPLMNNDERAAVGTCYKQQGSDAALALGHKLVAGEIRQQRMDAWRAACLQNPQGILCCARGGQRSHIVQSWLHAAGIDYPLVEGGYKALRQTAIQATIELAQKPIVLIGGCTGSGKTLLVQQQPNGVDLEGLARHRGSAFGRTLQPQLSQASFENLLAAEMLKTDARQNLRLWVLEDESRMIGSNHLPECLRERMTQAAIAVVEDPFEIRLERLNEEYFLRMHHDFTHAYGDEQGWQEYCEYLHHGLSAIKRRLGLQRYNELAARLDAALTTQLTTGSTDGHLAWLVPLLEEYYDPMYRYQLEKKAEKVVFRGEWAEVAEWVKAR | soluble
16 | MGSDKIHHHHHHMTLKKLRANDRMKQIMAGYYMMGNQAEVKGWITSGAPVELLYAMDIYPVYPENHGALIGAAKQGPYFSDFAERKGFSRDLCSYARCDIGCVFAGTSPIGGLPEPTFLFACNNICNTVVKWYEVLSRIFKVPLFVLDTPFVRKELKESYVKYVHDQLYEFVDFLEKTTGRELSDSKLRDTVIKSIQGVKAYAEVLGMARHKPSPLTCFDAFINMAPIVCLRGTDYPVQFYAEMKEELEERVKRGEGAIENEEIRLLWDNIPVWYRLKWFSEFFAERNACLVADTYTNAWTGFISIDKSDIFWSMAETYTFIYLNIGLEHMAEAINRLIDYYDVDGAVIHSNRSCKPYSFGQYELQKMIEVPSVIIEADMVDSRTFSEAQVETRLEAFLEMLR | not soluble
17 | MSLEGTQMLATNKKCWDTVAPYFFQVDCLPKYGPYTASEDEIRLFDSIRKKKVLDIGCGSGHSLQYMAEQGAEELWGLDLSSTQIEIANKTLKDWNPKLVCGAMEEEGDIPKGYFDIVYSIYALGWTSDLRKTLELIYSYVKPGGSFIFSWEHPVYSNLQYGTEEVAIKSSYHEETPITFETFKGENVQATLHKRKISTYINELNRAGFKIERIEEPEPSSSLDGELAEPSTKYYSLYKARMVPTTFIIKARKEGHHHHHH | soluble
18 | DEILIDPHAVLGPVDPQLMNYPAPSILKVVEKKEPKDIDDKTLIMADIAEKAINQVRETVFNLLKDKMDEEKAREVAKILTEGRWTHDYPLTVEELRQLGLKVSTDVPEEVYELMELYPQPMMQRHPGVEFVPSPPKGEKPSFK | not soluble
19 | QKFIARNRAPRVQIEYDVEIYGAERKIQLPFVMGVLADLAGKSNTPQPEVGERKFLDVDIDNFDERMKSVAPRAAFQVANTLTGAGHLNVDITFESIDDFSPATVARKVGALNEMLEARTQLANLLTYMDGKTGAEELIGQVLQNPALLGALAAAPKPA | not soluble
20 | MAGDPMGGAGLDNAQNVRNQTQNQTKPIHVSDRNEAFNRHNENEQFGYVRYQKEQFDGEQQKTPVMNREETAHMISSLTVQLPHIQDAATLVTDREALVVYKTDSKNRELTADQVKKTAASVIPRYYHVYISDNPNHMQSVENYSNLGSGSRDIREIMSGTIQEMKTSPQGSPVSENENANGETRQDMKIDRNDKNARLEHHHHHH | soluble
21 | MSLVENLFLEPQSKRRKINPETIESPSPNCNHWFVRNKICISCYTTVDNFEGRSFDYLYKGMQMSNEALGFTKGLISQTSWLEDKKLHLVLDLDQTLIHTIKTSLLYESEKYIIEEVESRKDIKRFNTGFPEESLIKLRPFVHQFLKECNEMFSMYVYTKGGYDYARLVLEMIDPDKFYFGNRVITRRESPGFKTLDLVLADERGIVIVDDTSSVWPHDKKNLLQIARYKYFGDKSCLFSEDKKKIDESDEKGPLNTALRFLKDVHEEFFYDWSKKDLDSVDVRPLLKEISLRWKRKADGVV | soluble
